This is an account of results in patent publication US20190338026A1 (University of Texas, published 2019).

The target of assay [1] is T1, LAIR1 on LAIR1 reporter cells (human, UniProt Q6GTX8 22-165, limits assumed).
T1 chain: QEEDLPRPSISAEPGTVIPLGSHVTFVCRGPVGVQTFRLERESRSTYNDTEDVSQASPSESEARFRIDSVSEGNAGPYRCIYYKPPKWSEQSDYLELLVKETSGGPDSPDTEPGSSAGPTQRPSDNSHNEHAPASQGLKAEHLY

Assay [2] has as its target T1, LAIR1 on LAIR1 reporter cells.
Assay [3] deals with T2, human LAIR1 extracellular domain (ECD) protein with 6 HIS tag at the C-terminus (human, UniProt Q6GTX8 22-165).
T2 construct: Produced recombinantly in HEK293 cells; the whole entry is named here; also called LAIR1 ECD; LAIR1-ECD
T2 chain: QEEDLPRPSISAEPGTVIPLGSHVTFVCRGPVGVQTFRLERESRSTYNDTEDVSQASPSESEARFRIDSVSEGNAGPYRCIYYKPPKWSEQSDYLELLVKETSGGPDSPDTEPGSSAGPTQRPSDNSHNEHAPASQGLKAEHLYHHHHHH
Put plainly: ELISA, LAIR1 ECD coated. The method in brief:
(§1)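 Binding is measured on immobilized recombinant LAIR1 ECD, with antibodies (IgG or scFv formats) applied as a twelve-point threefold dilution series up to 10 μg/ml for 45 minutes at 37° C.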

The target of assay [4] is T1, LAIR1 on LAIR1 reporter cells. Put plainly: cell-based or functional assay.
The target is the same in assay [5]. Put plainly: cell-based or functional assay.
Assay [6] concerns the target T2, human LAIR1 extracellular domain (ECD) …. The assay is described as follows: ELISA, LAIR1 ECD coated, mAb titrated, anti-rabbit HRP. The method in brief: as §1
The target in a further assay is T3, recombinant LAIR1 (human, UniProt Q6GTX8 22-165, limits assumed).
T3 construct: also called LAIR1 (Octet analyte)
T3 chain: T1 chain
The assay is described as follows: BLI (Octet), mAb on protein A sensor, recombinant LAIR1 0.1-200 nM, 1:1 fit. On the procedure: To perform the assay, antibody (30 μg/mL) was loaded to the proteins A sensor for 4 min, followed by a short buffering to establish baseline in kinetics buffer. The loaded sensors were then exposed to a series of recombinant LAIR1 concentrations (0.1-200 nM) for kinetic binding detection. Background subtraction was used to correct the sensor drifting. All experiments were performed with shaking at 1,000 rpm. Background wavelength shifts were measured from reference sensors that were loaded only with antibody. ForteBio's data analysis software was used to fit the data to a 1:1 binding model to extract an association rate and dissociation rate. The KD was calculated using the ratio […] using ForteBio's data analysis software 7.0.

The molecule collagen I (ligand) came in with a GFP+% of LAIR1 reporter cells, collagen I coated, no Ab (row collagen I-ctrl) in assay [1] of 31.3%. Further, in assay [2], the GFP+% of LAIR1 reporter cells, K562 coculture, no Ab (row Collagen I-ctrl) was found to be 42.5%.

B1: LA-121 (antibody, V domains shown)
VH: EQSVEESGGRLVTPGTPLTLTCTASGFSLYKYNIQWVRQAPGKGLEYIGASTYAGYTYYASWAIGRVTISRTSTTVDLKMTSPTTEDTATYFCARHIDGDYSGYALWGPGTLVTISS
VL: ELDLTQTPASVSAAVGGTVTIKCQASQSIDTWFGWYQQKPGQSPKLLIYGASKLASGVPPRFKGSGSGTEFTLTISDLECADAATYYCQNTYYGVRYLGGAFGGGTEVEIK
notes: Rabbit monoclonal IgG
Consider B1, for which the “EC50 (read off the curve)” value in assay [3] is around 0.03 µg/mL. Further, the “GFP+% of LAIR1 reporter cells, collagen I coated, soluble Ab” value in assay [4] worked out at 1.11%. Besides, the “GFP+% of LAIR1 reporter cells, collagen I coated, soluble Ab and K562 cells” value in assay [5] is 0.891%. In assay [6], this molecule returned an EC50 of 210 pM. Besides, in the assay with recombinant LAIR1, the Kd was 127 pM, the koff was 2.41e-05 s⁻¹ and the association rate constant (kon) came to 190000 M⁻¹ s⁻¹.

B2: LA-259-2 (antibody, V domains shown)
VH: QSVKESGGRLVTPGTPLTLTCTASGFSLYKYNIQWVRQAPGKGLEYIGASTYAGYTYYASWAKGRVTISRTSTTVDLKMTSPTTEDTATYFCARHIDGDYSGYALWGPGTLVTISS
VL: ELVMTQTPASVSAAVGGTVTIKCQASQSIGTWFAWYQQKPGQSPKLLIYGPSKLASGVPPRFKGSGSGTEFTLTISDLECDDAATYYCQSNGGSISNGWGSFGGGTEVVVK
notes: Rabbit monoclonal IgG
On to B2, for which the “EC50 (read off the curve)” value in assay [3] is around 0.03 µg/mL. Besides, the EC50 in assay [6] was found to be 220 pM. Further, in the assay with recombinant LAIR1, the dissociation constant Kd was found to be 196 pM, the koff came to 4.23e-05 s⁻¹ and the kon was found to be 216000 M⁻¹ s⁻¹.

B3: LA-258-2 (antibody, V domains shown)
VH: QSVKESGGDLVKPEGSLTLTCKASGFSFSNSYYMCWVRQAPGKGLEWIACIYTGSTSGTYYASWVNGRFTISKTPSTTVTLQMTSLTVADTATYFCSRKLTNFNGAYLDLWGPGTLVTISS
VL: ELVMTQTPSSVEAAVGGTVTIKCQASQSIYSYLAWYQQKPGQPPKVLIYKASTLASGVPSRFKGSGSGTDFTLTISDLECADAATYYCQANNGGSDNNFGGGTEVEIK
notes: Rabbit monoclonal IgG
Turning to B3, the “EC50 (read off the curve)” value in assay [3] is around 0.05 µg/mL. This molecule gave an EC50 in assay [6] of 370 pM. Further, in the assay with recombinant LAIR1, the dissociation constant (Kd) is 33.7 pM, the off-rate constant (koff) is 8.02e-06 s⁻¹ and the kon came out at 238000 M⁻¹ s⁻¹.

B4: LA-258-3 (antibody, V domains shown)
VH: B3 VH
VL: ELVLTQTPASVEAAVGGTVTINCQASQSISNLLAWYQQKPGQPPKVLIYKASTLASGVPSRFKGSGSGTDFTLTISDLECADAATYYCQANNGGSDNNFGGGTEVVVKA
notes: Rabbit monoclonal IgG
On to B4, for which the 50% effective concentration (EC50 (read off the curve)) in assay [3] is around 0.05 µg/mL. In assay [6], this molecule registered a concentration giving a half-maximal response (EC50) of 300 pM. In addition, in the assay with recombinant LAIR1, the Kd stood at 5580 pM, the koff was determined as 0.00222 s⁻¹ and the kon worked out at 397000 M⁻¹ s⁻¹.
